Experimental findings from US10677782B2, “Methods of determining interferon having direct inhibitory effects on tumors and uses thereof” (SUPERLAB FAR EAST LIMITED, priority 2013, dated 2020) are described below.

One experiment concerns LRP6 mRNA in H460 cells. The experiment in a line: qPCR of Wnt-related receptor LRP6. As to conditions: 10 μg/ml, 24 hr; vs Mock. In kind it is cell-based, human. From the text: Total mRNA was isolated using TRIZOL Reagent (Invitrogen, Carlsbad, Calif.) according to the manufacturer's instructions. Complementary DNA (cDNA) was synthesized using a RT-PCR Kit (Cat #: FSQ-101, TOYOBO, Japan) according to the manufacturer's instructions and then subjected to qPCR with a SYBR Green PCR kit (Cat #: QPK-201, TOYOBO, Japan). The primers of the four Wnt pathway target genes were as follows: Axin2 sense primer: 5′-[…]-3′ (SEQ ID NO:8) and antisense primer: 5′-[…]-3′ (SEQ ID NO: 9); CD24 sense primer: 5′-[…]-3′ (SEQ ID NO: 10) andantisense primer: 5′-[…]-3′ (SEQ ID NO: 11); Survivin sense primer: 5′-[…]-3′ (SEQ ID NO: 12) and antisense primer: 5′-[…]-3′ (SEQ ID NO: 13) and ID2 sense primer: 5′-[…]-3′ (SEQ ID NO: 14) and antisense primer: 5′-[…]-3′ (SEQ ID NO: 15).
The amplification protocol consisted of incubations at 95° C. for 1 minute, 40 cycles (95° C. for 15 seconds, 60° C. for 15 seconds, 72° C. for 30 seconds). Incorporation of the SYBR Green dye into PCR products was monitored in real time with a Bio-Rad Detection System and subsequently analyzed using Bio-Rad CFX manager 2.1 software. The samples were pooled for each condition and run in duplicate. […]
The regulation of LRP6/FZD6 by rSIFN-co was investigated. […] Results were recorded as relative mRNA level of either LRP6 or FZD6 relative to GAPDH.
On the technique in general: Quantitative PCR measures a nucleic acid by following its amplification.

The next experiment concerns different cancer cells. The experiment in a line: Cell viability, Am-Blue assay, 48 hr, across the cancer cell lines tested. The settings on record: 100 mcg/ml, any of the cancer cell lines. In kind it is cell-based, human. Here is the method:
Cell culture and reagents human lung cancer cell lines (A549, H1299, H460, Calu-1), human liver cancer cell lines (SMMC-7721, Huh-7, CL-1), human cervical carcinoma cell line (Hela), human breast cancer cell line (MDA-MB-231), human pancreatic cancer cell line (PANC-1) and human colon cancer cell lines (SW620, HT29, SW480) were purchased from the Shanghai Cell Collection (Shanghai, China). The above cell lines were cultured in 5% CO2 at 37° C. in corresponding complete growth medium formulated by the Shanghai Cell Collection, with 10% heat-inactivated fetal bovine serum (Biochrom, Germany), supplemented with 4 mM glutamine, 50 U/ml penicillin and […] streptomycin.
About 5×10^3 cells in 100 μl complete medium per well were plated in 96-well plates, incubated overnight, and then treated with IFN α-2b or rSIFN-co at concentrations of 100 μg/ml, 50 μg/ml, 25 μg/ml, 12.5 μg/ml, 6.25 μg/ml, 3.13 μg/ml, 1.56 μg/ml, 0.78 μg/ml, 0.39 μg/ml, and 0.20 μg/ml, respectively, for about 48 hr, at which time the cells were harvested for analysis. The cell viability rate was evaluated by SunBio Am-Blue assay kit (Cat #: SBAB8025, Shanghai SBO Medical Biotechnology Co., Ltd, Shanghai, China). […] Results are shown in FIG. 5, in which viability of the tumor cells was expressed as a percentage relative to control cells that were not treated. […]

B1: rSIFN-co: Recombinant super-compound interferon; amino acid sequence SEQ ID NO: 1 (same as interferon alfacon-1), encoded by SEQ ID NO: 2, novel tertiary structure (protein)
chain: MCDLPQTHSLGNRRALILLAQMRRISPFSCLKDRHDFGFPQEEFDGNQFQKAQAISVLHEMIQQTFNLFSTKDSSAAWDESLLEKFYTELYQQLNDLEACVIQEVGVEETPLMNVDSILAVKKYFQRITLYLTEKKYSPCAWEVVRAEIMRSFSLSTNLQERLRRKE
modifications: Amino acid sequence of recombinant interferon
With B1, the “relative expression of the LRP6 mRNA” value in the experiment with LRP6 mRNA in H460 cells is on record as “down-regulated to various extents”. Moreover, in the experiment on different cancer cells, the cell viability result was “cell viability could not be detected”.
